This note sets out measurements from PMC5245964 (eLife, 2017).

For this assay, the target named is T1, Mis18α:Mis18β complex (insect-cell-expressed) (human, UniProt Q9NYP9 1-233; O43482 1-229).
T1 construct: Mis18α, human, the CDS of Mis18α; codon-optimized cDNA (GeneArt); Mis18β, human, the CDS of Mis18β; pre-formed complex used as one partner in pull-downs and reconstitution; also called Mis18α:Mis18β hexamer; source: Tnao38 insect cells, baculovirus co-expression, purified (Ni resin, His-TEVp cleavage, SEC); not shown: His6, N-terminal, cleaved; copies: 4 + 2
T1 sequence (Q9NYP9 whole entry, chain 1 of 2): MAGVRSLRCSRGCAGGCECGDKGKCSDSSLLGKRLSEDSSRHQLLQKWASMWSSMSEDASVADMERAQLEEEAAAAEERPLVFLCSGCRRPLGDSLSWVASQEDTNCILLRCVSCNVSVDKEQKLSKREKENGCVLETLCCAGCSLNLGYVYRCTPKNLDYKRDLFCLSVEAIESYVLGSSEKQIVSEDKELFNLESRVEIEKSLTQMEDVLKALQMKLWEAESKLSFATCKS
T1 sequence (O43482 whole entry, chain 2 of 2): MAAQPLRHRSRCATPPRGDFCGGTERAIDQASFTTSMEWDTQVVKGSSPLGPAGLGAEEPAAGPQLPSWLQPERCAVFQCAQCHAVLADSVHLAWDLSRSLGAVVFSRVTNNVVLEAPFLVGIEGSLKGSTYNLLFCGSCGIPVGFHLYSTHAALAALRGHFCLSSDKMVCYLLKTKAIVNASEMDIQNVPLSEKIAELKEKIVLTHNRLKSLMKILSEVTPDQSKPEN
Briefly: pull-down; MBP-tagged M18BP1 variant held on amylose resin, Mis18α:Mis18β in solution; proteins 3 μM, buffer HST300 (30 mM HEPES pH 7.5, 300 mM NaCl, 1 mM TCEP), 4°C, 30 min; CBB-stained Tricine–SDS-PAGE. The conditions noted are these: both partners purified.

B1: MBP-M18BP1^61–140/S110A-8His (domain or fragment, human, UniProt Q6P0N0 61-140, looked up)
chain: NQFLKMTTFNNKNIFQSTMLTEATTSNSSLDISAIKPNKDGLKNKANYEAPGKIFLRMKEKVLRDKQEQPSRNSSLLEPQ
notes: M18BP1 (KNL2), human, residues 61-140; also tested after CDK1:Cyclin B1 treatment; Ser110 is the only major site of 61-140, so no separate molecule was made; source: E. coli BL21-CodonPlus(DE3)-RIL, purified (Ni resin); not shown: MBP, N-terminal, kept; His8, C-terminal, kept
In the case of B1, the binding result is “binds”.
